T1: recombinant soluble extracellular domain (ECD) of ICOS (inducible T-cell costimulator) (R&D Systems) (UniProt Q9Y6W8 21-140, limits assumed)
T1 construct: extracellular domain
T1 sequence (looked up): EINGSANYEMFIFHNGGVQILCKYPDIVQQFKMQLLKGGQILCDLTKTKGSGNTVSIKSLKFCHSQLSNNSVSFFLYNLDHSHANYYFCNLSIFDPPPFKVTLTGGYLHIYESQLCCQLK


What was measured:
[1] = biological target: human Programmed Death-1 (PD-1) expressed on the cell surface (human) (UniProt Q15116); assay: flow cytometry blocking assay: HEK293 cells expressing PD-1 incubated with 10 µg/ml isotype control, washed, stained with PD-L1-Ig Alexa-488; negative control of blocking
Sequence of human Programmed Death-1 (PD-1) expressed on the cell surface (human) (Q15116 25-288): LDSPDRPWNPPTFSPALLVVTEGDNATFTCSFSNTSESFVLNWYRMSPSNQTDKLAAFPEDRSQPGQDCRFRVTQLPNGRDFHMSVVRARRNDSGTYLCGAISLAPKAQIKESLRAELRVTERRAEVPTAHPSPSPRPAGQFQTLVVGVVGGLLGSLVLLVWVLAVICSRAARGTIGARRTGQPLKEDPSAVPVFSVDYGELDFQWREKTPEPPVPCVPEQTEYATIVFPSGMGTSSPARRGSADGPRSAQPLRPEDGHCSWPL

[2] = biological target: T2, recombinant soluble extracellular domain (ECD) of PD-1 (R&D Systems) (UniProt Q15116 25-170); assay: ELISA, PD-1 ECD coated on the plate, antibody titrated from about 0.003 to about 13 nM, OD 450 nm
T2 construct: extracellular domain; also called PD-1 ECD
T2 sequence (Q15116 25-170): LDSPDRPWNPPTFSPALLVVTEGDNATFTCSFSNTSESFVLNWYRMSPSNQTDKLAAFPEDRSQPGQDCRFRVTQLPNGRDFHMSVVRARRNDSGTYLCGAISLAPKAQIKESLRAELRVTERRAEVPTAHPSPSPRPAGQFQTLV
Protocol: (§1) To assess selectivity of the anti-PD-1 antibodies, ELISA was used to generate dose response curves for binding of the anti-PD-1 antibodies to several immunomodulatory cell surface proteins. Recombinant soluble extracellular domains (ECDs) of ICOS (inducible T-cell costimulator), PD-1, CD28 or CTLA4 (R&D Systems, Minneapolis, Minn.) were coated onto ELISA assay plates. Binding of each anti-PD-1 antibody and each control antibody to each target protein was then assessed over a range of antibody concentrations (FIGS. 9A-9D).

[3] = biological target: T3, recombinant soluble extracellular domain (ECD) of CTLA4 (R&D Systems) (UniProt P16410 36-161, limits assumed); assay: ELISA, CTLA4 ECD coated on the plate, OD 450 nm; anti-CTLA4 as positive control
T3 construct: extracellular domain
T3 sequence (P16410 36-161 limits assumed): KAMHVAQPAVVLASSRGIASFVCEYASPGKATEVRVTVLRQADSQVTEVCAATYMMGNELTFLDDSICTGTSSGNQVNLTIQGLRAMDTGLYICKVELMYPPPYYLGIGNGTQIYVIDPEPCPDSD
Protocol: as §1

[4] = biological target: T4, human Programmed Death-1 (PD-1) expressed on the cell surface (human, UniProt Q15116 25-288); assay: cell-based or functional assay
T4 sequence (Q15116 25-288): as the sequence (Q15116 25-288) above

[5] = biological target: T5, recombinant soluble extracellular domain (ECD) of CD28 (R&D Systems) (UniProt P10747 19-152, limits assumed); assay: ELISA, CD28 ECD coated on the plate, OD 450 nm; anti-CD28 as positive control
T5 construct: extracellular domain
Protocol: as §1

[6] = biological target: T6, soluble extracellular domain of human PD-1 (human, UniProt Q15116 25-170); assay: BLI (ForteBio Octet Red), antibody on the biosensor, soluble PD-1 ECD as analyte
T6 construct: extracellular domain
T6 sequence (Q15116 25-170): as the sequence (Q15116 25-170) above
Protocol: Biophysical characteristics of certain anti-PD-1 antibodies were analyzed by biolayer interferometry (BLI), using the ForteBio Octet Red system (Pall Corporation, Menlo Park, Calif.). The antibodies were immobilized on BLI biosensors and then incubated with the soluble extracellular domain of human PD-1. Using standard biophysics methods, apparent on-rates and off-rates were then inferred for PD-1 with anti-PD-1 antibodies.

[7] = biological target: T1, recombinant soluble extracellular …; assay: ELISA, ICOS ECD coated on the plate, OD 450 nm; anti-ICOS as positive control
Protocol: as §1

[8] = biological target: human Programmed Death-1 (PD-1) expressed on the cell surface (human) (UniProt Q15116); assay: flow cytometry blocking assay: HEK293 cells expressing PD-1 incubated with 10 µg/ml antibody, washed, stained with PD-L1-Ig Alexa-488 as the blocked ligand
[9] = biological target: recombinant soluble extracellular domain (ECD) of PD-1 (R&D Systems) (UniProt Q15116); assay: ELISA, PD-1 ECD coated on the plate, antibody titrated from about 0.003 to about 13 nM, OD 450 nm
Sequence of recombinant soluble extracellular domain (ECD) of PD-1 (R&D Systems) (UniProt Q15116) (Q15116 25-170): as above

[10] = biological target: human Programmed Death-1 (PD-1) expressed on the cell surface (human) (UniProt Q15116); assay: cell-based or functional assay
[11] = biological target: T4, human Programmed Death-1 (PD-1) …; assay: cell-based or functional assay; remark: listed apart in the source
[12] = biological target: T4, human Programmed Death-1 (PD-1) …; assay: cell-based or functional assay; remark: listed apart in the source
[13] = biological target: T4, human Programmed Death-1 (PD-1) …; assay: cell-based or functional assay; remark: listed apart in the source

| EC50 (read off the curve) [2] | binding result [3] | binding result [5] | Kd [6] | koff [6] | kon [6] | binding result [7] | Molecule | CD4 IFNγ % positive [4] | CD8 IFNγ % positive [4] | CD8 TNFα % positive [4] | further results |
| --- | --- | --- | --- | --- | --- | --- | --- | --- | --- | --- | --- |
|  |  |  |  |  |  |  | isotype control mouse IgG1 (antibody) |  |  |  | percent of cells in gate Alexa Fluor 488-A+ (PD-L1-Ig staining after the antibody) [1]: 37.6%; percent of cells in gate Alexa Fluor 488-A- (PD-L1-Ig staining after the antibody) [1]: 62.4% |
| ~0.03 nM | no binding (tested: about 13 nM) | no binding (tested: about 13 nM) | 15.1 nM | 0.00322 s⁻¹ | 213000 M⁻¹ s⁻¹ | no binding (tested: about 13 nM) | 100244_C8VH3_100245_C8VK5 (antibody, V domains shown, Mouse variable regions; cloned into pFUSE-CHIg-mG1 (murine IgG1 Fc), expressed in HEK293) VH: EVQLQESGPELVRPGASVKMSCKASGYTFTSYWMHWVKQRPGQGLEWIGMIDPSNSETSLNQKFKDKATLNVDKSTNTAYMQLSSLTSEDSAVYYCARSRGNYAYEMDYWGQGTSVTVSS VL: DIVITQTTAIMSASPGEKVTLTCSASSSVSSNYLYWYQQRPGSSPKLWIYSTSNLASGVPARFSGSGSGTSYSLTISSMEAEDAASYFCHQWSSYPPTFGSGTKLEIK | 9.64 % positive | 19.9 % positive | 14.5 % positive |  |
|  |  |  |  |  |  |  | mouse anti-PD-1 cl. EH12.2H7 (antibody, from another filing, V domains shown) VH: QVQLQQSGAELAKPGASVQMSCKASGYSFTSSWIHWVKQRPGQGLEWIGYIYPSTGFTEYNQKFKDKATLTADKSSSTAYMQLSSLTSEDSAVYYCARWRDSSGYHAMDYWGQGTSVTVSS VL: DIVLTQSPASLTVSLGQRATISCRASQSVSTSGYSYMHWYQQKPGQPPKLLIKFGSNLESGIPARFSGSGSGTDFTLNIHPVEEEDTATYYCQHSWEIPYTFGGGTKLEIK |  |  |  | percent of cells in gate Alexa Fluor 488-A+ (PD-L1-Ig staining after the antibody) [8]: 10.3%; percent of cells in gate Alexa Fluor 488-A- (PD-L1-Ig staining after the antibody) [8]: 89.7%; EC50 (read off the curve) [9]: 0.02 nM; CD4 IFNγ % positive [10]: 12.8 % positive; CD8 IFNγ % positive [10]: 19.5 % positive; CD8 TNFα % positive [10]: 14.1 % positive |
| ~0.05 nM | no binding (tested: about 13 nM) | no binding (tested: about 13 nM) | 2.69 nM | 0.000999 s⁻¹ | 371000 M⁻¹ s⁻¹ | no binding (tested: about 13 nM) | 100388_D4VH3_100389_D4VK5 (antibody, V domains shown, Mouse variable regions; cloned into pFUSE-CHIg-mG1 (murine IgG1 Fc), expressed in HEK293) VH: EVQLQESGAELVRPGASVTLSCKASGYTFTDYEMHWVKQTPVHGLEWIGVIDPGTGGTAYNQKFKVKALLTADKSSNTAYMELRSLTSEDSAVYYCTSEKFGSNYYFDYWGQGTTLTVSS VL: DIVITQTPLSLPVSLGDQASISCRSSQTIVHSDGNTYLEWYLQKPGQSPKLLIYKVSNRFSGVPDRFSGSGSGTDFTLKISRVEAEDLGVYYCFQGSHVPLTFGAGTKLEIK | 21.2 % positive | 31.2 % positive | 8.56 % positive |  |
| ~0.06 nM | no binding (tested: about 13 nM) | no binding (tested: about 13 nM) | 58.9 nM | 0.0299 s⁻¹ | 507000 M⁻¹ s⁻¹ | no binding (tested: about 13 nM) | 100413_E1VH9_100414_E1VK5 (antibody, V domains shown, Mouse variable regions; cloned into pFUSE-CHIg-mG1 (murine IgG1 Fc), expressed in HEK293) VH: EVQLQESGPSLVQPSQSLSITCTVSGFSLTSYGVHWVRQSPGKGLEWLGVIWRGGNTDYNAAFMSRLSITKDNSKSQVFFKMNSLQADDTAIYYCAASMIGGYWGQGTTLTVSS VL: DIVLTQTPLSLPVSLGDQASISCRSSQSIVHSNGNTYLEWYLQKPGQSPKLLIYKVSNRFSGVPDRFSGSGSGTNFTLKISRVEAEDLGVYYCFQGSHVPLTFGAGTKLELK | 20.2 % positive | 27 % positive | 11.1 % positive |  |
|  |  |  |  |  |  |  | 244C8-2 (100244_C8_HC1 + 100245_C8_LC3) (antibody, V domains shown) VH: QVQLVQSGAEVKKPGASVKVSCKASGYTFTSYWMHWVRQAPGQGLEWMGMIDPSNSETSLNQKFQGRVTMTVDKSTNTVYMELSSLRSEDTAVYYCARSRGNYAYEMDYWGQGTLVTVSS VL: DIVLTQSPGTLSLSPGEKVTLSCRASSSVSSNYLYWYQQKPGQAPRLVIYSTSNLATGIPDRFSGSGSGTDYTLTISRLEPEDFAVYFCHQWSSYPPTFGQGTKVEIK |  |  |  | Fold Induction IFN-γ (relative to anti-CD3 + anti-CD28 only; antibody at 5 ug/mL) [11]: 2.66 fold; Fold Induction IFN-γ (relative to anti-CD3 + anti-CD28 only; antibody at 10 ug/mL) [11]: 2.81 fold; Fold Induction IFN-γ (relative to isotype control; NSCLC biopsy cells, 20 µg/mL) [12]: 7.76 fold; Fold Induction IFN-γ (normalized to nivolumab; 20 µg/mL total antibody) [13]: 1.77 fold |
| ~0.04 nM | no binding (tested: about 13 nM) | no binding (tested: about 13 nM) | 76.4 nM | 0.0123 s⁻¹ | 161000 M⁻¹ s⁻¹ | no binding (tested: about 13 nM) | 100246_A10VH1_100247_A10VK3 (antibody, V domains shown, Mouse variable regions; cloned into pFUSE-CHIg-mG1 (murine IgG1 Fc), expressed in HEK293) VH: EVQLQESGPGLVKPSQSLSLTCTVTGYSITSDYAWNWIRQFPGNKLEWMGYITYSGSPTYNPSLKSQFSITRDTSKNQFFLQLNSLTTEDTATYYCARGLGGHYFDYWGQGTTLTVSS VL: DIVLTQSPDTLSVTPGDRVSLSCRASQSISDYLHWYQQKSHESPRLLIKYASQSISGIPSRFSGSGSGSDFTLSINSVEPEDVGVYYCQNGHSYPYTFGGGTKLELK | 20.3 % positive | 26.2 % positive | 14.9 % positive |  |
